Experimental data taken from patent US20210169980A1 (HONG KONG UNIVERSITY OF SCIENCE AND TECHNOLOGY, published 2021).
Read-outs that look alike come from different tables or passages of the source.

How the values were obtained:
GABARAP [1] = target: T1, GABARAP (human, UniProt O95166 1-117, limits assumed); test: ITC; without the C-helix extension (LIR-S, aa 448-461)
T1 construct: elsewhere only "mammalian"

GABARAPL2 [2] = target: T2, GABARAPL2 (human, UniProt P60520 1-117, limits assumed); test: ITC
T2 construct: also called GATE-16
T2 sequence (P60520 whole entry): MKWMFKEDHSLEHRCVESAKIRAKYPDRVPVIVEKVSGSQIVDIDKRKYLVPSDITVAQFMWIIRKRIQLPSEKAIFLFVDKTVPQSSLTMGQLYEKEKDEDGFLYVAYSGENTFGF

GABARAP [3] = target: T1, GABARAP; test: ITC
LC3C [4] = target: T3, LC3C (human, UniProt Q9BXW4 1-126); test: ITC
T3 sequence (Q9BXW4 1-126, form in doubt): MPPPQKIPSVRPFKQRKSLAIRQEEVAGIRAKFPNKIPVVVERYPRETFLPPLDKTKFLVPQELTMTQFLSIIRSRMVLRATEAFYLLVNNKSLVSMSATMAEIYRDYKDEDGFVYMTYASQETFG

LC3B [5] = target: T4, LC3B (human, UniProt Q9GZQ8 1-125); test: ITC
LC3A [6] = target: T5, LC3A (human, UniProt Q9H492 1-121); test: ITC
LC3B [7] = target: T4, LC3B; test: ITC (table of Kd values)
LGG-1 [8] = target: T6, LGG-1 (C. elegans, UniProt Q09490 1-123, limits assumed); test: ITC (table of Kd values)
T6 construct: Purified protein in the ITC; also called worm orthologue of GABARAP
T6 sequence (Q09490 whole entry): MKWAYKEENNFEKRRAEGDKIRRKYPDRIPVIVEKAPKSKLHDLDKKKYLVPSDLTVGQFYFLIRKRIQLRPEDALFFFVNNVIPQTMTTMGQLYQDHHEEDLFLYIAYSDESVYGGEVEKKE

LGG-2 [9] = target: T7, LGG-2 (C. elegans, UniProt Q23536 1-130, limits assumed); test: ITC (table of Kd values)
T7 construct: also called worm orthologue of LC3
T7 sequence (looked up): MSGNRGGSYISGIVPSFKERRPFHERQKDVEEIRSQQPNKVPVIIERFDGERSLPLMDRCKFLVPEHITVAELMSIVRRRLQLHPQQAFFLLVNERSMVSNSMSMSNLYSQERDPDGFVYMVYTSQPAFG

LC3A R70E [10] = test: ITC
Sequence of LC3A R70E (chain, as listed by the source R70E R70E limits assumed): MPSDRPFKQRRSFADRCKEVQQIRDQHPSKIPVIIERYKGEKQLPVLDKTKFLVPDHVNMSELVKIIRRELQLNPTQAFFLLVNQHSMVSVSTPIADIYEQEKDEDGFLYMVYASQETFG

LC3A [11] = target: T5, LC3A; test: ITC; remark: listed apart in the source
GABARAP R67E [12] = test: ITC
Sequence of GABARAP R67E (chain, as listed by the source R67E R67E limits assumed): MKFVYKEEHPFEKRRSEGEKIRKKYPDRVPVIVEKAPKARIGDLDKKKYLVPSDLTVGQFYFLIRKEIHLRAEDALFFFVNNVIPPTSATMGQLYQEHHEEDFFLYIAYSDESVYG

GABARAP [13] = target: T1, GABARAP; test: ITC; remark: listed apart in the source
LC3A [14] = target: T5, LC3A; test: ITC; remark: listed apart in the source
LGG-2 [15] = target: T7, LGG-2; test: ITC
GABARAP [16] = target: T1, GABARAP; test: ITC; ratio of the binding to GABARAP against that to LC3A
LC3A R70E [17] = test: ITC; remark: listed apart in the source
LC3A [18] = target: T5, LC3A; test: ITC; remark: listed apart in the source
GABARAP R67E [19] = test: ITC; remark: listed apart in the source
LC3C [20] = target: T3, LC3C; test: ITC; remark: listed apart in the source
LC3B [21] = target: T4, LC3B; test: ITC; remark: listed apart in the source
GABARAPL2 [22] = target: T2, GABARAPL2; test: competition-based ITC (asterisk; legend paragraph 51)
[..]1 = [..]1 (human, UniProt Q9H0R8 1-117); test: as above
Sequence of [..]1 (Q9H0R8 whole entry): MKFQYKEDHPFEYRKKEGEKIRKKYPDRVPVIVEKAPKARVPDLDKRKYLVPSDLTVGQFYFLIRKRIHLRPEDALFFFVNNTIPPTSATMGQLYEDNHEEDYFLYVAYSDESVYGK

GABARAP [23] = target: T1, GABARAP; test: ITC; remark: listed apart in the source
LGG-1 [24] = target: T6, LGG-1; test: ITC
GABARAP [25] = target: T1, GABARAP; test: ITC (table of Kd values)

T1 sequence (O95166 whole entry, the tested form may be a part): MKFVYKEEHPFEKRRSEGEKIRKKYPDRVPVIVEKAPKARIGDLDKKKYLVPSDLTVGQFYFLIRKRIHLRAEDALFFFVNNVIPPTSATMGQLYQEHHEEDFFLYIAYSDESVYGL

B1: human FAM134B LIR without the C-helix extension (LIR-S, aa 448-461) (peptide, UniProt Q9H6L5 448-461, looked up)
peptide: DTEEGDDFELLDQS
notes: range 448-461; also called FAM134B LIR-S
In the case of B1, the Kd (GABARAP [1]) is reported as 704 nM.

PEDDWTEFSSEEIREARQAAASHAPS [AnkG LIR (AnkG WT peptide, rat 480 kD AnkG residues 1985-2010)] gave a Kd (GABARAPL2 [2]) of roughly 40 nM, a Kd (GABARAP [3]) of roughly 2.6 nM and a Kd (LC3C [4]) of 2930 nM. The Kd (LC3B [5]) was 339 nM, the Kd (LC3A [6]) was 546 nM and the Kd (LC3B [7]) was 339 nM. The Kd (LGG-1 [8]) was 1.6 nM, the Kd (LGG-2 [9]) was 210 nM and the binding result (LC3A R70E [10]) was “no binding”. The Kd (LC3A [11]) was 546 nM and the Kd (GABARAP R67E [12]) was 114 nM.

Work on PEDDWTEFSSEEQREARQAAASHAPS (also called AnkG I1997Q) [I1997Q] yielded a Kd (LC3A [11]) of roughly 12500 nM and a Kd (GABARAP [13]) of 68 nM.

B2: W1989R (peptide)
peptide: PEDDRTEFSSEEIREARQAAASHAPS
notes: Untagged peptide used in ITC; m22 is its mCherry fusion; also called AnkG W1989R; AnkG WR
B2: no binding (LC3B [7]); no binding (LGG-1 [8]); no binding (LGG-2 [9]). For the same binder, the binding result (LC3A [11]) was “no binding” and the Kd (GABARAP [13]) was roughly 12800 nM.

PEDDWTEFSSERIREARQAAASHAPS (also called AnkG E1996R) [E1996R] was tested, and the Kd (LC3A [11]) was roughly 100000 nM and the Kd (GABARAP [13]) was 398 nM.

B3: AnkG E1991R (modified from rat 480 kD AnkG residues 1985-2010) (peptide)
peptide: PEDDWTRFSSEEIREARQAAASHAPS
notes: also called AnkG ER; Glu1991Arg AnkG LIR
With B3 the “fold lower affinity against AnkG LIR WT” value (LC3A [14]) was roughly 10 fold, the “fold weaker binding against LGG-1” value (LGG-2 [15]) was roughly 1000 fold and the Kd (LGG-1 [8]) was 8.5 nM. The Kd (LGG-2 [9]) was 8470 nM, the “selectivity between GABARAP and LC3A” value (GABARAP [16]) was roughly 1000 fold and the Kd (LC3A [11]) was 7190 nM. For the same binder, the Kd (GABARAP [13]) was 6.9 nM.

For PEDDWTEFSSEEIREQRQAAASHAPS (also called AnkG A2000Q) [A2000Q], the Kd (LC3A [11]) was 8200 nM and the Kd (GABARAP [13]) was 741 nM.

PEDDWTEFSSEEIREA [AnkG LIR construct "1985-2000" (aa 2001-2010 truncated)] was tested, and the “fold decrease of binding against AnkG LIR (aa 1985-2010)” value (GABARAP [3]) was roughly 200 fold, the Kd (LC3A [11]) was 7410 nM and the Kd (GABARAP [13]) was 510 nM.

SSEEIREARQAAASHAPS [AnkG LIR C-helix alone (aa 1993-2010)]: no binding (GABARAP [3]); no binding (LC3A [11]).

VEEEWVIVSDEEIEEARQKAPLEITEY [AnkB LIR (AnkB WT peptide, human 440 kD AnkB residues 1588-1614)] gave a Kd (LC3A R70E [17]) of 860 nM, a Kd (LC3A [18]) of 3.6 nM and a Kd (GABARAP R67E [19]) of 56 nM. For the same binder, the binding result (LGG-2 [15]) was “binds”, the Kd (LC3B [7]) was 4.2 nM and the Kd (LGG-1 [8]) was 1.2 nM. For the same binder, the Kd (LC3C [20]) was 10.5 nM, the Kd (LC3B [21]) was 4.2 nM and the Kd (GABARAPL2 [22]) was 0.21 nM. The Kd ([..]1) was 0.29 nM.

VEEEWVIVSDERIEEARQKAPLEITEY (also called AnkB E1599R) [E1599R] gave a Kd (LC3A [18]) of 312 nM and a Kd (GABARAP [23]) of 38 nM.

B4: AnkB W1592R (peptide)
peptide: VEEERVIVSDEEIEEARQKAPLEITEY
notes: also called AnkB WR; Trp1592Arg mutant of AnkB LIR
In the case of B4, the Kd (LC3A [18]) is reported as roughly 26600 nM, the Kd (GABARAP [23]) is reported as greater than 100000 nM and the binding result (LGG-1 [24]) is reported as “no binding”. For the same binder, the binding result (LGG-2 [15]) was “no binding” and the Kd (GABARAP [25]) was greater than 100000 nM.
